From PMC9876794 (2022)

Biological target: SARS-CoV-2 spike RBD (WT) (Severe acute respiratory syndrome …, UniProt P0DTC2)
Experiment: ELISA
Design: unit not given here

Binder | binding score
D110 (antibody, V domains shown) VH: EVQLLESGGGLVQPGGSLRLSCTASGFTFSNYAMNWVRQAPGQGLEWVSAISGSGYSTYYVDSAKGRFTISRDNSKNTLYLQMNSLRADDTAVFYCTKSTYYDNSGYYSVFDYWGQGTLVTVSS VL: NFMLTQPHSVSESPGETVTISCTRSSGNIASKFVQWFQQRPGSSPTTVIYENNQRPSGVPDRFSGSIDSSSNSASLTISGLKTEDEADYYCQSSDSTNVVFGGGTKLTVL | 2330
D179 (antibody, V domains shown) VH: EVQLVESGGGLVQPGRSLRLSCAASGFTFDDYAMHWVRQAPGKGLEWVSGISWNSGSIGYADSVKGRFTISRDNAKNSLYLQMNSLRAEDTALYYCAKGQIVGATSSDYGMDVWGQGTTVTVSS VL: DIQMTQSPSSVSASVGDRVTITCRASQGISSWLAWYQQKPGKAPKLLIYAASSLQSGVPSRFSGSGSGTDFTLTISSLQPEDFATYYCQQANSFPYTFGQGTKLEIK | 8900
D123 (antibody, V domains shown) VH: EVQLVESGGGLVQPGRSLRLSCAASGFIFDDYAMHWVRQVPGKGLEWVSGISWNGGIIGQADSVKGRFTISRDNAKNSLYLQMNNLRAEDTALYFCTKDVGPGSPNYFDSWGQGTLVTVSS VL: DIQMTQSPSTLSASVGDRVTITCRASQSISSWLAWYQQKPGKAPKFLIYKTSNLENGVPSRFSGSGSGTEFTLTISSLQPDDFATYFCQEYITNSRTFGQGTRLEIK | 7780
D052 (antibody, V domains shown) VH: EVQLVESGGGLVQPGGSLRLSCAASGFTFSSYDMHWVRQATGKGLEWVSAIGTAGDTYYPGSVKGRFTISRENAKNSLYLQMNSLRAGDTAVYYCARVGYSLYGDYKSYWYFDLWGRGTLVTVSS VL: not shown | 49
D170 (antibody, V domains shown) VH: QVQLVQSGAEVKKPGSSVKVSCKASGGTFSSYAISWVRQAPGQGLEWMGGIIPIFGTANYAQKFQGRVTITADESTSTAYMELSSLRSEDTAVYYCAREGGYCSGGSCSHYFDAFDIWGQGTMVTVSS VL: QSALTQPASVSGSPGQSITISCTGTSSDVGSYNLVSWYQQHPGKAPKLMIYEGSKRPSGVSNRFSGSKSGNTASLTISGLQAEDEADYYCCSYAGSSTFWVFGGGTKLTVL | 3050
D176 (antibody, V domains shown) VH: QVQLVQSGAEVKKPGASVKVSCKASGYTFTSYDINWVRQATGQGLEWMGWMNPNSGNTGYAQKFQGRVTITRNTSISTAYMELSSLRSEDTAVYYCARGGSLMDVWGKGTTVTVSS VL: QFVLTQPASVSGSPGQSITISCTGTSSDVGGYNYVSWYQQHPGKAPKLMIYDVSKRPSGVSNRFSGSKSGNTASLTISGLQAEDEADYYCSSYTSSSTFEVFGGGTKLTVL | 1430
C2725 (antibody, V domains shown) VH: EVQLVESGGGLVQPGRSLRLSCAASGFTFDDYAMHWVRQAPGKGLEWVSGISWNSGSIGYADSVKGRFTISRDNAKNSLYLQMNSLRAEDTALYYCAKLSRGHYYDFKADSGDFDYWGQGTLVTVSS VL: QSALTQPASVSGSPGQSITISCTGTSSDVGSYNLVSWYQQHPGKAPKLMIYEGSKRPSGVSNRFSGSKSGNTASLTISGLQAEDEADYYCCSYAGSSWVFGGGTKLTVL | 230
D185 (antibody, V domains shown) VH: QVQLVQSGAEVKKPGSSVKVSCKASGGTFSSYAISWVRQAPGQGLEWMGGIIPIFGTANYAQKFQGRVTITADKSTSTAYMELSSLRSEDTAVYYCARAQQQLVQHGGYGMDVWGQGTTVTVSS VL: QSVLTQPPSVSGAPGQRVTISCTGSSSNIGAGYDVHWYQQLPGTAPKLLIYGNSNRPSGVPDRFSGSKSGTSASLAITGLQAEDEADYYCQSYDSSLSAVVFGGGTKLTVL | > 10000
D175 (antibody, V domains shown) VH: QLQLQESGPGLVKPSETLSLTCTVSGGSISSSSYYWGWIRQPPGKGLEWIGSIYYSGSTYYNPSLKSRVTISVDTSKNQFSLKLSSVTAADTAVYYCARGATYYYDSSGYYTPAPFDYWGQGTLVTVSS VL: not shown | > 10000
D161 (antibody, V domains shown) VH: EVQLLESGGGLVQPGGSLRLSCAASGFTFSSYAMSWVRQAPGKGLEWVSAISGSGGSTSYADSVKGRFTISRDNSKNTLYLQMNSLRVEDTAVYYCAKGPRVTTEYFEYWGQGTLVTVSS VL: not shown | > 10000
D097 (antibody, V domains shown) VH: EVQLVQSGAEVKKPGESLKISCKGSGYSFTSYWIGWVRQMPGKGLEWMGIIYPGDSDTRYSPSFQGQVTISADKSISTAYLQWSSLKASDTAMYYCARLGDAGAFDIWGQGTMVTVSS VL: QSVLTQPPSVSGAPGQRVTISCTGSSSNIGAGYDVHWYQQLPGTAPKLLIYGNSNRPSGVPDRFSGSKSGTSASLAITGLQAEDEADYYCQSYDSSLSGSKVFGGGTKLTVL | > 10000
D016 (antibody, V domains shown) VH: EVQLVESGGGLVQPGRSLRLSCAASGFTFDDYAMHWVRQAPGKGLEWVSGISWNSGSIGYADSVKGRFTISRDNAKNSLYLQMNSLRAEDMALYYCAKDAGIAAVNWYFDLWGRGTLVTVSS VL: not shown | 5250
D010 (antibody, V domains shown) VH: EVQLVESGGGLVQPGRSLRLSCAAFGFTFDDYAMHWVRQAPGKGLEWVSGISWNSGSIGYADSVKGRFTISRDNAKNSLYLQMNSLRAEDTALYYCAKDITFRDGYPGAVDYWGQGTLVTVSS VL: not shown | > 10000
D163 (antibody, V domains shown) VH: QVQLVQSGAEVKKPGASVKVSCKASGYTFTSYYMHWVRQAPGQGLEWMGIINPSGGSTSYAQKFQGRVTMTRDTSTSTVYMELSSLRSEDTAVYYCARDFSLIPATAMVLDYWGQGTLVTVSS VL: DIQMTQSPVSLSASVGDRVTITCRASQSISSWLAWYQQKPGKAPKLLIYKASSLESGVPSRFSGSGSGTEFTLTISSLQPDDFATYYCQQYNSYASFGQGTKVEIK | > 10000
D156 (antibody, V domains shown) VH: EVQLLESGGGLAQPGGSLRLSCAASGFTFSSYAMSWVRQAPGKGLEWVSAISGSGGTYYADFVKGRFTISRDDSKNTLYLQINSLRAEDTAIYYCAKDGYGSGNYKLRYLELWGRGTLVTVSS VL: QSVLTQPASVSGSPGQSITISCTGTSSDVGGYNYVSWYQQHPGKAPKFMIYDVSKRPSGVSNRFSGSKSGNTASLTISGLQAEDEADYYCFSYAGSLVFGGGTKLTVL | > 10000
C2692 (antibody, V domains shown) VH: EVQLVESGGGLVQPGRSLRLSCAASGFTFDDYAMHWVRQAPGKGLEWVSGISWNSGSIGYADSVKGRFTISRDNAKNSLYLQMNSLRAEDTALYYCAKDIDTMVQGGEFYFDYWGQGTLVTVSS VL: QSALTQPASVSGSPGQSITISCTGTSSDVGGYNYVSWYQQHPGKAPKLMIYDVSNRPSGVSNRFSGSKSGNTASLTISGLQAEDEADYYCSSYTSSSTVVFGGGTKLTVL | 1200
D182 (antibody, V domains shown) VH: QVQLVESGGGVVQPGRSLRLSCAASGFTFSSYGMHWVRQAPGKGLEWVAVISYDGSNKYYADSVKGRFTISRDNSKNTLYLQMNSLRAEDTAVYYCAKATVLMVYAGFDYWGQGTLVTVSS VL: NFMLTQPHSVSESPGKTVTISCTGSSGSIASNYVQWYQQRPGSAPTTVIYEDNQRPSGVPDRFSGSIDSSSNSASLTISGLKTEDEADYYCQSYDSSNRWVFGGGTKLTVL | 2500
D026 (antibody, V domains shown) VH: EVQLVESGGGLVQPGRSLRLSCAASGFTFDDYAMHWVRQAPGKGLEWVSGISWNSGSIGYADSVKGRFTISRDNAKNSLYLQMNSLRAEDTALYYCAKDIHYDSSGLDYWGQGTLVTVSS VL: not shown | > 10000
D151 (antibody, V domains shown) VH: QVQLQQWGAGLLKPSETLSLTCAVYGGSFSGYYWSWIRQPPGKGLEWIGEINHDGDTNYNPSLKSRVTLSVDTSKNQFSLSLSSVTAADTAVYYCARRKQQQSYYYYSIDVWGQGTTVTVSS VL: DIQMTQSPSSLSASVGDRVTITCRATQGIRNDLGWYQQKPGKAPKRLIYAASSLQSGVPSRFSGSGSGTEFTLTISSLQPEDFATYYCLQHSSYPLTFGGGTKVEIK | > 10000
D180 (antibody, V domains shown) VH: EVQLVESGGGLVQPGGTLRLSCEASGFAFSTFWMTWVRQAPGKGLEWVANIKQDGSEKYYVDSVKGRFTISRDNAKNSLYLQMNSLRAEDTAVYYCASRSIVVAGTDYWGQGTLVTVSS VL: not shown | 8900
D023 (antibody, V domains shown) VH: EVQLVQSGAEVKKPGESLKISCKGSGYSFTSYWIGWVRQMPGKGLEWMGIIYPGDSDTRYSPSFQGQVTISADKSISTAYLQWSSLKASDTAMYYCAISYSGSYSGAFDIWGQGTMVTVSS VL: not shown | > 10000
C2713 (antibody, V domains shown) VH: QVQLVQSGAEVKKPGASVKVSCKASGYTFTSYYMHWVRQAPGQGLEWMGIINPSGGSTSYAQKFQGRVTMTRDTSTSTVYMELRSLRSEDTAVYYCARDRSSNYGMDVWGQGTTVTVSS VL: not shown | 4560
D021 (antibody, V domains shown) VH: QVQLVESGGGVVQPGRSLRLSCAASGFTFSSYGMHWVRQAPGKGLEWVAVISYDGSNKYYADSVKGRFTISRDNSKNTLYLQMNSLRAEDTAVYYCAKAGQYGDYTHSGDYWGQGTLVTVSS VL: DIQMTQSPSSLSASVGDRVTITCQASQDISNYLNWYQQKPGKAPKLLIYDASNLETGVPSRFSGSGSGTDFTFTISSLQPEDIATYYCQQYDNLPIAFGQGTRLEIK | 4670
D153 (antibody, V domains shown) VH: QVQLVQSGAEVKKPGASVKVSCKASGYTFTSYGISWVRQAPGQGLEWMGWISAYNGNTNYAQKLQGRVTMTTDTSTSTAYMELRSLRSDDTAVYYCARDFNDFWSGYWGYWGQGTLVTVSS VL: QSALTQPPSASGSPGQSVTISCTGTSSDVGGYNYVSWYQQHPGKAPKLMIYEVSKRPSGVPDRFSGSKSGNTASLTVSGLQAEDEADYYCSSYAGSNNLVFGGGTKLTVL | > 10000
D139 (antibody, V domains shown) VH: QVQLVESGGGVVQPGRSLRLSCAASGFTFSSYGMHWVRQAPGKGLEWVAVISYDGSNKYYADSVKGRFTISRDNSKNTLYLQMNSLRAEDTAVYYCAKMGGGVYCSGGSCYSSYFDYWGQGTLVTVSS VL: AIQLTQSPSSLSASVGDRVTITCRASQGISSALAWYQQKPGKAPKLLIYDASSLESGVPSRFSGSGSGTDFTLTISSLQPEDFATYYCQQFNNYLPLTFGGGTKVEIK | 311
